This note sets out measurements from patent publication US20220204611A1 (Amgen, published 2022).

Assay [1] addresses T1, human TREM2 (human, UniProt Q9NZC2 19-174, limits assumed).
T1 sequence: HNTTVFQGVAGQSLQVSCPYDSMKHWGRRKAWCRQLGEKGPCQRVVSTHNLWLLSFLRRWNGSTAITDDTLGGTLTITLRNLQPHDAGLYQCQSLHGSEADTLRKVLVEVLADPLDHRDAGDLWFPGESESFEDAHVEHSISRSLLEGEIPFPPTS
Briefly: yeast-displayed Fab FACS, 1st screen 110 nM.

Assay [2] addresses T1, human TREM2. As to the kind of experiment: yeast-displayed Fab FACS, 2nd screen 100 nM.

B1: V6 (Fab, V domains shown)
VH: EVQLVQSGAEVKKPGESLKISCKGSGYSFTSMWIAWVRQMPGKGLEWMGIIYPGDSDTRYSPSFQGQVTISADKSISTAYLQWSSLKASDTAMYFCARQRTFYYDSSDYFDYWGQGTLVTVSS
VL: DIQMTQSPSSVSASVGDRVTITCRASQGISSWLAWYQQKPGKAPKLLIYAASSLQNGVPSRFSGSGSGTDFTLTISSLQPEDFATYFCQQADSFPRTFGQGTKLEIK
With B1, the “binding signal fold over 6E7 parental” value with human TREM2 [1] worked out at 0.2 fold; with human TREM2 [2] it was 0.56 fold.

B2: V9 (Fab, V domains shown)
VH: EVQLVQSGAEVKKPGESLKISCKGSGYSFTSYWIAWVRQMPGKGLEWMGIIYPGDSDTRYSPSFQGQVTISADKSISTAYLQWSSLKASDTAMYFCARQRGFYYDSSDYFDYWGQGTLVTVSS
VL: DIQMTQSPSSVSASVGDRVTITCRASQGISSWLAWYQQKPGKAPKLLIYAASSLQNGVPSRFSGSGSGTDFTLTISSLQPEDFATYFCQQADSFPRTFGQGTKLEIK
Turning to B2, the “binding signal fold over 6E7 parental” value in the assay with human TREM2 [1] was found to be 0.67 fold; with human TREM2 [2] it was 0.54 fold.

B3: V10 (Fab, V domains shown)
VH: EVQLVQSGAEVKKPGESLKISCKGSGYSFTSYWIAWVRQMPGKGLEWMGIIYPGDSDTRYSPSFQGQVTISADKSISTAYLQWSSLKASDTAMYFCARQRTFYYDSSDYFDYWGQGTLVTVSS
VL: DIQMTQSPSSVSASVGDRVTITCRASQGISSWLAWYQQKPGKAPKLLIYSASSLQNGVPSRFSGSGSGTDFTLTISSLQPEDFATYFCQQADSFPRTFGQGTKLEIK
For the molecule B3, the “binding signal fold over 6E7 parental” value with human TREM2 [1] was found to be 0.76 fold; in the assay with human TREM2 [2] it was 0.7 fold.

B4: V7 (Fab, V domains shown)
VH: EVQLVQSGAEVKKPGESLKISCKGSGYSFTSEWIAWVRQMPGKGLEWMGIIYPGDSDTRYSPSFQGQVTISADKSISTAYLQWSSLKASDTAMYFCARQRTFYYDSSDYFDYWGQGTLVTVSS
VL: DIQMTQSPSSVSASVGDRVTITCRASQGISSWLAWYQQKPGKAPKLLIYAASSLQNGVPSRFSGSGSGTDFTLTISSLQPEDFATYFCQQADSFPRTFGQGTKLEIK
Regarding B4, the “binding signal fold over 6E7 parental” value in the assay with human TREM2 [1] stood at 0.11 fold; in the assay with human TREM2 [2], 0.32 fold.

B5: V21 (Fab, V domains shown)
VH: EVQLVQSGAEVKKPGESLKISCKGSGYSFTSYWIAWVRQMPGKGLEWMGIIYPGDSDTRYSPSFQGQVTISADKSISTAYLQWSSLKASDTAMYFCARQRTFYYDSSDFFDYWGQGTLVTVSS
VL: DIQMTQSPSSVSASVGDRVTITCRASQGISSWLAWYQQKPGKAPKLLIYAASSLQNGVPSRFSGSGSGTDFTLTISSLQPEDFATYFCQQADSFPRTFGQGTKLEIK
For B5, the “binding signal fold over 6E7 parental” value is 0.76 fold with human TREM2 [1] and 0.68 fold with human TREM2 [2].

B6: V23 (Fab, V domains shown)
VH: EVQLVQSGAEVKKPGESLKISCKGSGYSFTSYWIAWVRQMPGKGLEWMGIIYPGDSDTRYSPSFQGQVTISADKSISTAYLQWSSLKASDTAMYFCARQRTFYYDSSDYFDYWGQGTLVTVSS
VL: DIQMTQSPSSVSASVGDRVTITCRASQGISSWLAWYQQKPGKAPKLLIYAASSLQNGVPSRFSGSGSGTDFTLTISSLQPEDFATYFCQQADSFPLTFGQGTKLEIK
Regarding B6, the “binding signal fold over 6E7 parental” value in the assay with human TREM2 [1] and in the assay with human TREM2 [2] was 0.4 fold in each case.

B7: V11 (Fab, V domains shown)
VH: EVQLVQSGAEVKKPGESLKISCKGSGYSFTSYWIAWVRQMPGKGLEWMGIIYPGDSDTRYSPSFQGQVTISADKSISTAYLQWSSLKASDTAMYFCARQRTFYYDSSDYFDYWGQGTLVTVSS
VL: DIQMTQSPSSVSASVGDRVTITCRASQGISSWLAWYQQKPGKAPKLLIYAASSLQNGVPSRFSGSGSGTDFTLTISSLQPEDFATYFCQQAASFPRTFGQGTKLEIK
For the molecule B7, the results for the “binding signal fold over 6E7 parental” value with human TREM2 [1] and in the assay with human TREM2 [2] were 0.79 fold and 0.42 fold, respectively.

B8: V20 (Fab, V domains shown)
VH: EVQLVQSGAEVKKPGESLKISCKGSGYSFTSYWIAWVRQMPGKGLEWMGRIYPGDSDTRYSPSFQGQVTISADKSISTAYLQWSSLKASDTAMYFCARQRTFYYDSSDYFDYWGQGTLVTVSS
VL: DIQMTQSPSSVSASVGDRVTITCRASQGISSWLAWYQQKPGKAPKLLIYAASSLQNGVPSRFSGSGSGTDFTLTISSLQPEDFATYFCQQADSFPRTFGQGTKLEIK
As to B8, the figures for the “binding signal fold over 6E7 parental” value in the assay with human TREM2 [1] and with human TREM2 [2] were 0.18 fold and 0.52 fold, respectively.

B9: V8 (Fab, V domains shown)
VH: EVQLVQSGAEVKKPGESLKISCKGSGYSFTSYWIAWVRQMPGKGLEWMGIIYPGDSDTKYSPSFQGQVTISADKSISTAYLQWSSLKASDTAMYFCARQRTFYYDSSDYFDYWGQGTLVTVSS
VL: DIQMTQSPSSVSASVGDRVTITCRASQGISSWLAWYQQKPGKAPKLLIYAASSLQNGVPSRFSGSGSGTDFTLTISSLQPEDFATYFCQQADSFPRTFGQGTKLEIK
Take B9: the entries for the “binding signal fold over 6E7 parental” value in the assay with human TREM2 [1] and with human TREM2 [2] were 0.28 fold and 0.77 fold, respectively.

B10: V31 (Fab, V domains shown)
VH: EVQLVQSGAEVKKPGESLKISCKGSGYSFTSYWIAWVRQMPGKGLEWMGIIYPGDSETRYSPSFQGQVTISADKSISTAYLQWSSLKASDTAMYFCARQRTFYYDSSDYFDYWGQGTLVTVSS
VL: DIQMTQSPSSVSASVGDRVTITCRASQGISSWLAWYQQKPGKAPKLLIYAASSLQNGVPSRFSGSGSGTDFTLTISSLQPEDFATYFCQQADSFPRTFGQGTKLEIK
With B10, the “binding signal fold over 6E7 parental” value in the assay with human TREM2 [1] turned out to be 0.61 fold; with human TREM2 [2], 0.73 fold.

B11: V34 (Fab, V domains shown)
VH: EVQLVQSGAEVKKPGESLKISCKGSGYSFTSYWIAWVRQMPGKGLEWMGIIYPGDSDTRYSPSFQGQVTISADKSISTAYLQWSSLKASDTAMYFCARQRTFYYDSSDYFDYWGQGTLVTVSS
VL: DIQMTQSPSSVSASVGDRVTITCRASQGISSWLAWYQQKPGKAPKLLIYAASSLQDGVPSRFSGSGSGTDFTLTISSLQPEDFATYFCQQADSFPRTFGQGTKLEIK
On to B11, for which the “binding signal fold over 6E7 parental” value with human TREM2 [1] came out at 0.34 fold; with human TREM2 [2] it was 1.02 fold.

B12: V32 (Fab, V domains shown)
VH: EVQLVQSGAEVKKPGESLKISCKGSGYSFTSYWIAWVRQMPGKGLEWMGIIYPGDSDTRYSNSFQGQVTISADKSISTAYLQWSSLKASDTAMYFCARQRTFYYDSSDYFDYWGQGTLVTVSS
VL: DIQMTQSPSSVSASVGDRVTITCRASQGISSWLAWYQQKPGKAPKLLIYAASSLQNGVPSRFSGSGSGTDFTLTISSLQPEDFATYFCQQADSFPRTFGQGTKLEIK
In the case of B12, the entries for the “binding signal fold over 6E7 parental” value with human TREM2 [1] and with human TREM2 [2] were 0.82 fold and 0.89 fold, respectively.

B13: V35 (Fab, V domains shown)
VH: EVQLVQSGAEVKKPGESLKISCKGSGYSFTSYWIAWVRQMPGKGLEWMGIIYPGDSDTRYSPSFQGQVTISADKSISTAYLQWSSLKASDTAMYFCARQRTFYYDSSDYFDYWGQGTLVTVSS
VL: DIQMTQSPSSVSASVGDRVTITCRASQGISSWLAWYQQKPGKAPKLLIYAASSLQNGVPSRFSGSGSGTDFTLTISSLQPEDFATYFCQQAYSFPRTFGQGTKLEIK
Take B13: the “binding signal fold over 6E7 parental” value was 0.21 fold with human TREM2 [1] and 0.29 fold with human TREM2 [2].

B14: V30 (Fab, V domains shown)
VH: EVQLVQSGAEVKKPGESLKISCKGSGSSFTSYWIAWVRQMPGKGLEWMGIIYPGDSDTRYSPSFQGQVTISADKSISTAYLQWSSLKASDTAMYFCARQRTFYYDSSDYFDYWGQGTLVTVSS
VL: DIQMTQSPSSVSASVGDRVTITCRASQGISSWLAWYQQKPGKAPKLLIYAASSLQNGVPSRFSGSGSGTDFTLTISSLQPEDFATYFCQQADSFPRTFGQGTKLEIK
Turning to B14, the “binding signal fold over 6E7 parental” value in the assay with human TREM2 [1] was 0.79 fold; with human TREM2 [2], 0.72 fold.

B15: V22 (Fab, V domains shown)
VH: EVQLVQSGAEVKKPGESLKISCKGSGYSFTSYWIAWVRQMPGKGLEWMGIIYPGDSDTRYSPSFQGQVTISADKSISTAYLQWSSLKASDTAMYFCARQRTFYYDSSDYFDYWGQGTLVTVSS
VL: DIQMTQSPSSVSASVGDRVTITCRASQGISSWLAWYQQKPGKAPKLLIYRASSLQNGVPSRFSGSGSGTDFTLTISSLQPEDFATYFCQQADSFPRTFGQGTKLEIK
As to B15, the results for the “binding signal fold over 6E7 parental” value in the assay with human TREM2 [1] and in the assay with human TREM2 [2] were 0.3 fold and 0.71 fold, respectively.

B16: V19 (Fab, V domains shown)
VH: EVQLVQSGAEVKKPGESLKISCKGSGYSFTSSWIAWVRQMPGKGLEWMGIIYPGDSDTRYSPSFQGQVTISADKSISTAYLQWSSLKASDTAMYFCARQRTFYYDSSDYFDYWGQGTLVTVSS
VL: DIQMTQSPSSVSASVGDRVTITCRASQGISSWLAWYQQKPGKAPKLLIYAASSLQNGVPSRFSGSGSGTDFTLTISSLQPEDFATYFCQQADSFPRTFGQGTKLEIK
For B16, the “binding signal fold over 6E7 parental” value in the assay with human TREM2 [1] stood at 0.59 fold; with human TREM2 [2], 0.48 fold.

B17: V33 (Fab, V domains shown)
VH: EVQLVQSGAEVKKPGESLKISCKGSGYSFTSYWIAWVRQMPGKGLEWMGIIYPGDSDTRYSPSFQGQVTISADKSISTAYLQWSSLKASDTAMYFCARQRTFYGDSSDYFDYWGQGTLVTVSS
VL: DIQMTQSPSSVSASVGDRVTITCRASQGISSWLAWYQQKPGKAPKLLIYAASSLQNGVPSRFSGSGSGTDFTLTISSLQPEDFATYFCQQADSFPRTFGQGTKLEIK
As to B17, the “binding signal fold over 6E7 parental” value came to 0.23 fold with human TREM2 [1] and 0.34 fold with human TREM2 [2].

B18: V18 (Fab, V domains shown)
VH: EVQLVQSGAEVKKPGESLKISCKGSGYSFTSYHIAWVRQMPGKGLEWMGIIYPGDSDTRYSPSFQGQVTISADKSISTAYLQWSSLKASDTAMYFCARQRTFYYDSSDYFDYWGQGTLVTVSS
VL: DIQMTQSPSSVSASVGDRVTITCRASQGISSWLAWYQQKPGKAPKLLIYAASSLQNGVPSRFSGSGSGTDFTLTISSLQPEDFATYFCQQADSFPRTFGQGTKLEIK
As to B18, the “binding signal fold over 6E7 parental” value with human TREM2 [1] came to 0.17 fold; with human TREM2 [2] it was 0.42 fold.
